Measurements as given in the Human Domainome abundance scans (Beltran et al. 2025).
± gives the uncertainty stated by the source.

B1: Poly(rC)-binding protein 1, residues 278 to 350; numbered along this chain, Q15365 (parent)
chain: TQTTHELTIPNNLIGCIIGRQGANINEIRQMSGAQIKIANPVEGSSGRQVTITGSAASISLAQYLINARLSSE

Variants of: B1
Assay: abundance fitness (aPCA) (normalised: wild type 0, dead -1); higher = more abundant; growth selection in yeast, the domain comes from the species named
Conditions: Homo sapiens

| Variant | abundance fitness |
| --- | --- |
| I25V | -0.308 ± 0.053 |
| I25N | -0.931 ± 0.35 |
| I25G | -0.58 ± 0.057 |
| I25C | -1.01 ± 0.29 |
| I25Q | -0.564 ± 0.12 |
| I25M | -0.169 ± 0.05 |
| I25K | -0.873 ± 0.18 |
| G19L | -0.815 ± 0.13 |
| G19H | -0.833 ± 0.5 |
| G19R | -0.609 ± 0.067 |
| G19S | -0.473 ± 0.082 |
| G19E | -0.431 ± 0.091 |
| G19D | -0.321 ± 0.16 |
| G19P | -0.423 ± 0.1 |
| G19I | -0.583 ± 0.25 |
| G19Q | -0.532 ± 0.11 |
| G19W | -0.831 ± 0.13 |
| G19V | -0.991 ± 0.12 |
| G19A | -0.481 ± 0.068 |
| G19N | -0.655 ± 0.35 |
| G19M | -0.774 ± 0.17 |
| G19K | -0.194 ± 0.13 |
| G19T | -0.732 ± 0.15 |
| I18T | -0.218 ± 0.054 |

| Variant | abundance fitness |
| --- | --- |
| I18P | -0.808 ± 0.1 |
| I18D | -0.39 ± 0.091 |
| I18A | -0.316 ± 0.048 |
| I18K | -0.435 ± 0.07 |
| I18R | -0.636 ± 0.049 |
| I18N | -0.156 ± 0.13 |
| I18W | -0.232 ± 0.047 |
| I18C | -0.616 ± 0.097 |
| I18Q | -0.756 ± 0.087 |
| I18G | -0.565 ± 0.077 |
| I18H | -0.767 ± 0.15 |
| I18L | -0.355 ± 0.041 |
| I18F | -0.321 ± 0.13 |
| I18E | -0.118 ± 0.068 |
| I18V | -0.367 ± 0.046 |
| I18S | -0.433 ± 0.059 |
| G15L | -0.465 ± 0.071 |
| G15D | 0.002 ± 0.093 |
| G15M | 0 ± 0.065 |
| G15E | -0.062 ± 0.05 |
| G15C | -0.353 ± 0.093 |
| G15A | -0.092 ± 0.047 |
| G15F | -0.438 ± 0.24 |
| G15H | -0.072 ± 0.12 |

| Variant | abundance fitness |
| --- | --- |
| G15Y | -0.046 ± 0.097 |
| G15W | -0.14 ± 0.054 |
| G15I | -0.751 ± 0.32 |
| G15R | -0.136 ± 0.043 |
| G15S | -0.035 ± 0.051 |
| G15K | -0.083 ± 0.083 |
| G15N | 0.016 ± 0.15 |
| G15Q | -0.162 ± 0.073 |
| G15T | -0.03 ± 0.073 |
| G15V | -0.526 ± 0.066 |
| C16G | -0.116 ± 0.042 |
| C16F | -0.031 ± 0.15 |
| C16S | -0.042 ± 0.051 |
| C16T | 0.131 ± 0.063 |
| C16V | -0.083 ± 0.049 |
| C16R | 0.138 ± 0.033 |
| C16Q | 0.01 ± 0.055 |
| C16W | -0.092 ± 0.05 |
| C16M | 0.092 ± 0.076 |
| C16K | 0.093 ± 0.079 |
| C16P | -0.045 ± 0.065 |
| C16I | 0.266 ± 0.1 |
| C16A | 0.059 ± 0.049 |
| C16Y | -0.209 ± 0.21 |

| Variant | abundance fitness |
| --- | --- |
| C16L | -0.107 ± 0.048 |
| C16E | -0.038 ± 0.059 |
| C16H | -0.141 ± 0.094 |
| C16D | -0.063 ± 0.12 |
| R20W | -0.188 ± 0.053 |
| R20H | 0.139 ± 0.1 |
| R20Q | -0.008 ± 0.064 |
| R20L | -0.035 ± 0.04 |
| R20D | 0.042 ± 0.12 |
| R20P | 0.155 ± 0.053 |
| R20K | 0.048 ± 0.071 |
| R20S | -0.082 ± 0.043 |
| R20A | 0.028 ± 0.038 |
| R20M | -0.138 ± 0.064 |
| R20C | -0.04 ± 0.068 |
| R20N | 0.27 ± 0.09 |
| R20Y | 0.019 ± 0.093 |
| R20T | -0.167 ± 0.067 |
| R20F | 0.1 ± 0.1 |
| R20I | -0.074 ± 0.12 |
| R20E | 0.012 ± 0.062 |
| R20G | -0.173 ± 0.038 |
| R20V | -0.031 ± 0.043 |
| A23D | -0.079 ± 0.12 |

| Variant | abundance fitness |
| --- | --- |
| A23W | -0.419 ± 0.089 |
| A23E | 0.056 ± 0.069 |
| A23G | -0.069 ± 0.053 |
| A23I | -0.115 ± 0.13 |
| A23Q | 0.05 ± 0.061 |
| A23Y | -0.296 ± 0.13 |
| A23N | -0.167 ± 0.14 |
| A23M | -0.128 ± 0.076 |
| A23V | -0.09 ± 0.064 |
| A23C | 0.018 ± 0.067 |
| A23R | 0.102 ± 0.043 |
| A23P | -0.401 ± 0.1 |
| A23L | -0.22 ± 0.051 |
| A23K | 0.067 ± 0.072 |
| A23H | 0.102 ± 0.093 |
| A23F | 0.044 ± 0.15 |
| I17R | -0.98 ± 0.087 |
| I17A | -0.715 ± 0.083 |
| I17F | -0.177 ± 0.13 |
| I17Q | -0.878 ± 0.14 |
| I17S | -0.733 ± 0.091 |
| I17K | -1.09 ± 0.29 |
| I17G | -0.585 ± 0.081 |
| I17D | -0.506 ± 0.15 |

| Variant | abundance fitness |
| --- | --- |
| I17W | -0.663 ± 0.1 |
| I17H | -0.831 ± 0.2 |
| I17V | -0.106 ± 0.05 |
| I17C | -0.928 ± 0.26 |
| I17P | -1.17 ± 0.24 |
| I17M | -0.562 ± 0.086 |
| I17Y | -0.665 ± 0.2 |
| I17E | -0.782 ± 0.2 |
| I17T | -0.6 ± 0.11 |
| I17L | -0.022 ± 0.039 |
| L13N | -0.228 ± 0.12 |
| L13M | 0.05 ± 0.06 |
| L13T | -0.181 ± 0.068 |
| L13E | -0.06 ± 0.05 |
| L13K | 0.062 ± 0.054 |
| L13Q | 0.14 ± 0.063 |
| L13I | -0.076 ± 0.12 |
| L13R | -0.082 ± 0.032 |
| L13G | -0.477 ± 0.038 |
| L13F | -0.107 ± 0.19 |
| L13V | -0.404 ± 0.051 |
| L13H | -0.051 ± 0.082 |
| L13Y | -0.07 ± 0.14 |
| L13C | -0.21 ± 0.12 |

| Variant | abundance fitness |
| --- | --- |
| L13P | -0.959 ± 0.2 |
| L13A | -0.069 ± 0.043 |
| L13S | -0.041 ± 0.054 |
| L13D | -0.012 ± 0.089 |
| L13W | -0.265 ± 0.04 |
| N24E | -0.01 ± 0.063 |
| N24I | -0.06 ± 0.12 |
| N24A | 0.007 ± 0.041 |
| N24G | -0.04 ± 0.037 |
| N24H | -0.049 ± 0.067 |
| N24L | -0.134 ± 0.042 |
| N24R | 0.066 ± 0.032 |
| N24Y | 0.01 ± 0.14 |
| N24V | -0.048 ± 0.046 |
| N24F | -0.13 ± 0.11 |
| N24P | -0.088 ± 0.048 |
| N24Q | 0.002 ± 0.056 |
| N24S | -0.033 ± 0.046 |
| N24W | -0.161 ± 0.048 |
| N24C | -0.196 ± 0.077 |
| N24D | -0.003 ± 0.098 |
| N24M | 0.038 ± 0.073 |
| N24K | 0.076 ± 0.067 |
